B1: OAS1 (parent)
chain: TPAKSLDKFIEDYLLPDTCFRMQI

Variants of: B1
Assay: protein stability index of a GFP-peptide fusion (GPS, HEK-293T) (PSI 1-6); higher = more stable
Details: c terminus: a fixed tail appended
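Also: lentivirally expressed fusions sorted by FACS into six bins by GFP to DsRed ratio, PSI derived from sequencing read proportions per bin multiplied by bin number.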

Variant | protein stability index
TPAKSLDKFIEDYKLPDTCFRMQI | 2.37
TPAKSLDKFIEDYSLPDTCFRMQI | 1.74
TPAKSLDKFIEDYQLPDTCFRMQI | 1.62
TPAKSLDKFIEDYNLPDTCFRMQI | 3.44
TPAKSLDKFIEDYLLPDTCFRMLI | 3.03
TPAKSLDKFIEDYLLPDTCFRMEI | 2.6
TPAKSLDKFIEDYLLPDTCFRMMI | 3.2
TPAKSLDKFIEDYLLPDTCFRMTI | 2.48
TPAKSLDKFIEDYLLPDTCFRMVI | 2.56
TPAKSLDKFIEDYLLPDTCFRMSI | 5.04
TPAKSLDKFIEDYLLPDTCFRMGI | 3.25
TPAKSLDKFIEDYLLPDTCFRMKI | 1.54
TPAKSLDKFIEDYLLPDTCFRMFI | 2.13
TPAKSLDKFIEDYLLPDTCFRMRI | 3.21
TPAKSLDKFIEDYLLPDTCFRMWI | 3.07
TPAKSLDKFIEDYLLPDTCFRMHI | 3.27
TPAKSLDKFIEDYLLPDTCFRMII | 2.22
TPAKSLDKFIEDYLLPDTCFRMAI | 3.37
TPAKSLDKFIEDYLLPDTCFRMNI | 1.42
TPAKSLDKFIEDYLLPDTCFRMYI | 3.27
TPAKSLDKFIEDYLLPDTCFRMPI | 1.99
TPAKSLDKFIEDYLLPDTCFRMCI | 3.21
TPAKSLDKFIEDYLLPDTCFRMDI | 2.73
TPAKSLDKFIEDYLLVDTCFRMQI | 3.9

Variant | protein stability index
TPAKSLDKFIEDYLLHDTCFRMQI | 2.28
TPAKSLDKFIEDYLLADTCFRMQI | 2.73
TPAKSLDKFIEDYLLNDTCFRMQI | 2.65
TPAKSLDKFIEDYLLSDTCFRMQI | 2.49
TPAKSLDKFIEDYLLMDTCFRMQI | 1.84
TPAKSLDKFIEDYLLTDTCFRMQI | 2.68
TPAKSLDKFIEDYLLIDTCFRMQI | 2.41
TPAKSLDKFIEDYLLQDTCFRMQI | 3.14
TPAKSLDKFIEDYLLCDTCFRMQI | 2.44
TPAKSLDKFIEDYLLYDTCFRMQI | 1.82
TPAKSLDKFIEDYLLKDTCFRMQI | 2.78
TPAKSLDKFIEDYLLEDTCFRMQI | 1.93
TPAKSLDKFIEDYLLWDTCFRMQI | 1.9
TPAKSLDKFIEDYLLRDTCFRMQI | 3.61
TPAKSLDKFIEDYLLPDTCFRMQF | 2.76
TPAKSLDKFIEDYLLPDTCFRMQP | 2.12
TPAKSLDKFIEDYLLPDTCFRMQC | 2.23
TPAKSLDKFIEDYLLPDTCFRMQS | 1.84
TPAKSLDKFIEDYLLPDTCFRMQN | 1.76
TPAKSLDKFIEDYLLPDTCFRMQE | 1.85
TPAKSLDKFIEDYLLPDTCFRMQM | 1.7
TPAKSLDKFIEDYLLPDTCFRMQT | 1.46
TPAKSLDKFIEDYLLPDTCFRMQG | 1.55
TPAKSLDKFIEDYLLPDTCFRMQK | 1.99

Variant | protein stability index
TPAKSLDKFIEDYLLPDTCFRMQV | 2
TPAKSLDKFIEDYLLPDTCFRMQW | 2.39
TPAKSLDKFIEDYLLPDTCFRMQD | 2.47
TPAKSLDKFIEDYLLPDTCFRMQR | 2.43
TPAKSLDKFIEDYLLPDTCFRMQQ | 1.67
TPAKSLDKFIEDYLLPDTCFRMQY | 1.56
TPAKSLDKFIEDYLLPDTCFRMQA | 1.74
TPAKSLDKFIEDYLLPDTCFRMQH | 2.22
TPAKSLDKFIEDYLLPDTCFRMQL | 2.15
TPAKSLDKFIEDYLLPDTCSRMQI | 2.28
TPAKSLDKFIEDYLLPDTCCRMQI | 2.15
TPAKSLDKFIEDYLLPDTCLRMQI | 2.2
TPAKSLDKFIEDYLLPDTCQRMQI | 1.58
TPAKSLDKFIEDYLLPDTCMRMQI | 3.12
TPAKSLDKFIEDYLLPDTCDRMQI | 2.43
TPAKSLDKFIEDYLLPDTCARMQI | 2.23
TPAKSLDKFIEDYLLPDTCVRMQI | 2.97
TPAKSLDKFIEDYLLPDTCWRMQI | 3.38
TPAKSLDKFIEDYLLPDTCHRMQI | 1.47
TPAKSLDKFIEDYLLPDTCYRMQI | 2.56
TPAKSLDKFIEDYLLPDTCKRMQI | 2.4
TPAKSLDKFIEDYLLPDTCTRMQI | 2.21
TPAKSLDKFIEDYLLPDTCNRMQI | 1.95
TPAKSLDKFIEDYLLPDTCPRMQI | 1.75

Variant | protein stability index
TPAKSLDKFIEDYLLPDTCRRMQI | 2.8
TPAKSLDKFIEDYLLPDTCERMQI | 1.97
TPAKSLDKFIEDYLLPDTCIRMQI | 3.6
TPAKSLDKFIEDYLLPDTCGRMQI | 1.74
TPAKSLDKFIEDYLLPDTCFRWQI | 2.45
TPAKSLDKFIEDYLLPDTCFRIQI | 3.42
TPAKSLDKFIEDYLLPDTCFRSQI | 1.64
TPAKSLDKFIEDYLLPDTCFRCQI | 2.94
TPAKSLDKFIEDYLLPDTCFRTQI | 2.21
TPAKSLDKFIEDYLLPDTCFRVQI | 2.23
TPAKSLDKFIEDYLLPDTCFRYQI | 2.9
TPAKSLDKFIEDYLLPDTCFRFQI | 1.35
TPAKSLDKFIEDYLLPDTCFRDQI | 2.1
TPAKSLDKFIEDYLLPDTCFRRQI | 1.94
TPAKSLDKFIEDYLLPDTCFRHQI | 2.28
TPAKSLDKFIEDYLLPDTCFRLQI | 2.39
TPAKSLDKFIEDYLLPDTCFRKQI | 1.98
TPAKSLDKFIEDYLLPDTCFRNQI | 1.99
TPAKSLDKFIEDYLLPDTCFREQI | 2.23
TPAKSLDKFIEDYLLPDTCFRAQI | 1.93
TPAKSLDKFIEDYLLPDTCFRPQI | 2.03
TPAKSLDKFIEDYLLPDTCFRGQI | 2.51
TPAKSLDKFIEDYLLPDTCFRQQI | 1.5
